Source: article PMC2879517 (Nucleic Acids Research, 2010)

B1: DdrB from D. geothermalis labeled with SeMet (natural protein)
chain: MLHIEFITDLGAKVTVDVESADKLLDVQRQYGRLGWTSGEVPVGGYQFPLENEPDFDWSLIGARKWTNPEGEEMILHRGHAYRRRELEAVDSRKMKLPAAVKYSRGAKNTDPEHVREKADGEFEYVTLAIFRGGKRQERYAVPGSNRPQAGAPARSAATRAQGARPGAVAVQDEETPF
modifications: selenomethionine (SeMet) in place of methionine
B2: DdrB (DNA damage response B) from D. geothermalis, native, untagged (natural protein)
chain: B1 chain

Experiments:
crystal structure = target: the molecule itself; experiment: crystal structure
SEC = target: the molecule itself; experiment: SEC

Protein | stoichiometry N (crystal structure) | stoichiometry N (SEC)
B1 | 5 | –
B2 | – | 5
